Experimental data reported in the DeepSol protein solubility set.

Experiment: soluble on expression in E. coli; label from the status in PepcDB or PDB records

Sequence | soluble on expression in E. coli
MQVLSMIFTREILEEAINYGLTKNTTSFTRIKAGIYKTEREKHRDLPSHYIYTACEDASERLDSFNKLKKRGRSYTDRPSVRRVTVHLDDHLWKFSLNVISIATKRGRVCISPIFPKIFWRYYNDNWLIASGARFKLLKGNVVEFFIVFKKDVKSYDPRGFIPVDLNEDSVSVLINGKPILLETNTRMITLGYEYKRRSITNGRSTKDREVRRKLRERDKKLDVRRKFAKLIVKEAFGSRSAIVLEDLPRGVPEHMVKGVKDKQLRLRIYRSAFSSMKNAIVEKAREFGVPVILVDPSYTSSICPVHGSKIIYQPDGGSAPRVGVCGKGGERWHRDVVALYNLRKRAGDVSPVPLGSKESHDPPVVQVVEGLEHHHHHH | soluble
MQVPLNSADIDYAQFKDANGQEVLVIADGGKLKAFDGTKVYEIVPAPNESGYPANDLANINNKGLKGCVVHNTRVVIWDGSDTIWHSKIGYYDYFGQTDYQRFVRENDYVQTCVTFAGALLVFMRRHIGVLFGHDVEDWSQGFLDTQNGCINPKTVQTVTHPDGRQEVFYLSDNGVHAVYTIDTIEMDVSNRYSTRSVTEGLIDWKALGVTKDEWKRATAYFYDGRYWLIYPKGSEWRGLVYDTRLQAWFPINNVKANSFYHDEDYFYFAGDDGHLKVFDDTLYSDWNDKNKTSGTPINFYWYSKLLTPKLTGYDHFWDVLMIEAKQFPQKSALDVEVNTYLGRFTQEKAVKTASLVWGVTEWGEAQWQNPFLTEAVNNAKRLPTFLKGQYAQIKLSNNRDEPVEIYSLKYEVRLME | not soluble
MQVQAPRRTPKIQQVVEFVESLDDNHRLKGKEDGETYLIEPNAISRIYIENRQVLAETTQGDYHLGLRLYQVLEILPAYFIKISQSEIVNLKEIERFNITPNRLVEIHLKTRKLATHHAVTSKQ | not soluble
MQYHRIPHSSLEVSTLGLGTMTFGEQNSEADAHAQLDYAVAQGINLIDVAEMYPVPPRPETQGLTETYVGNWLAKHGSREKLIIASKVSGPSRNNDKGIRPDQALDRKNIREALHDSLKRLQTDYLDLYQVHWPQRPTNCFGKLGYSWTDSAPAVSLLDTLDALAEYQRAGKIRYIGVSNETAFGVMRYLHLADKHDLPRIVTIQNPYSLLNRSFEVGLAEVSQYEGVELLAYSCLGFGTLTGKYLNGAKPAGARNTLFSRFTRYSGEQTQKAVAAYVDIARRHGLDPAQMALAFVRRQPFVASTLLGATTMDQLKTNIESLHLELSEDVLAEIEAVHQVYTYPAP | soluble
MQYRRQPCSGVVKFNDAITLIDAGLHDLADRWSPGSFQQFLLTHYHMDHVQGLFPLRWGVGDPIPVYGPPDEQGCDDLFKHPGLLDFSHTVEPFVVFDLQGLQVTPLPLNHSKLTFGYLLETAHSRVAWLSDTAGLPEKTLKFLRNNQPQVMVMDCSHPPRADAPRNHCDLNTVLALNQVIRSPRVILTHISHQFDAWLMENALPSGFEVGFDGMEIGVALEHHHHHH | not soluble
MRAEDLFNDPKSYKRWYELHSKLYENERNVVRSFNLKDCLDVGSGPDIFHEEIGGRIVALDISLLMLKESKSDEKVLADALHLPFRDNSFKCVFSSVTVCFIEDVKGFIREMARITKERAIICFIARDSPWGEYYENLGKSGHKYYSHARFISRREFYVIINDFMKISRIRSTLKKMSETEIDGVYNDDSGSFICVEAIPMKPEPLSLSLNRHSGADPADPIS | not soluble
MRAELQAETEAERLERQAKLHELLHRLRGEPNVLLPFHQALALRPRGERHLGLRTIEVDKVVGSVDRYEDFDHRFLPKTPHTLERWKRLRALQLAGAEFPPIEVYQVGEAYFVKDGNHRVALAKATGQKFIDAHVIALDVPVPIEPGDTPKDLLLKAEYAHFLEKTRLKDLVPGAEEIRFTALGRYDRLLDHIATRRYFKGLEEGREISWEEAVVDWYENLYKPTVEAIRRLGLLRDFPGRTEADLYLWVMDHRYFLARELGVDPGPEGAAKSYEAHFGGVWKRLGGGLKRLLTGR | soluble
MRAFKAHLRGLSPYPYKKEEAPVKLDQNESPFDLPGALKEEALGRLRAIPWNRYPEIHAESLRKRLSALLDWPEEGIVLAPGSNLLILALSLAAEEVLDLRPSFPHYAHAAKVAGTPYRAVPLGEGFSLDLKALLAAFRGGVLFLPNPHAPTGALFPEEALRALAERAKEVGGLLVVDEAYREFAGTDFRFLARENPHVALLRTFSKAFSLGGVRAGYLLGSPEVAGVVREVLPPFVLPAHTGAVLEVVLENPGYVEKVVEEVVAQRERVYRELLAHPTWRPYPSRTNFLLVRTPDAEEAFRHLLSQGVLVRRQDRYPGLAGCLRVTVGRREEMDAFLRAAFGVAYA | soluble
